Test results reported in patent US20220119490A1 (Genentech, published 2022).

T1: LRRC4B expressed on cells (human, UniProt Q9NT99 36-713)
T1 construct: whole, on cells; C-terminally tagged in the co-IP; also called NGL-3; LRRC4B-FLAG
T1 sequence (looked up): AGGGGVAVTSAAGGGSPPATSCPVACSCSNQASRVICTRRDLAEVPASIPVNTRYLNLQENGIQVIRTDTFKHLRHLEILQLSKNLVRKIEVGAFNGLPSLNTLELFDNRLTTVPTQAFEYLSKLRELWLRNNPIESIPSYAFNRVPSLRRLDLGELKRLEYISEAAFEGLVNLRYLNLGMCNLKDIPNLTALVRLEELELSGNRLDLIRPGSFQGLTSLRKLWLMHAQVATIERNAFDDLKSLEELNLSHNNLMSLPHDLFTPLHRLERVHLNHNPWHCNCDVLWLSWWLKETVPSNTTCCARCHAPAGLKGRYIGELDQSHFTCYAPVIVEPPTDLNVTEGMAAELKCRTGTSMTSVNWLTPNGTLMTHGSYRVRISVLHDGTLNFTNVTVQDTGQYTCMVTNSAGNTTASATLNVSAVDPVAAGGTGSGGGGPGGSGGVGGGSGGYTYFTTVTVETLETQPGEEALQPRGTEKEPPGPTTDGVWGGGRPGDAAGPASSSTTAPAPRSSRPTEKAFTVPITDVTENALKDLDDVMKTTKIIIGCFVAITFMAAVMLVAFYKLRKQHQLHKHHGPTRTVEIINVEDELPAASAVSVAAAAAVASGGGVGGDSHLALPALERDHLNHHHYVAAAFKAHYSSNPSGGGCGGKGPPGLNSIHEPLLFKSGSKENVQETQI

T2: CD96 (human, UniProt P40200)
T2 construct: expressed on cells; also called CD96 expressed on cells
T2 sequence (cell-surface-expressed binding partner, looked up): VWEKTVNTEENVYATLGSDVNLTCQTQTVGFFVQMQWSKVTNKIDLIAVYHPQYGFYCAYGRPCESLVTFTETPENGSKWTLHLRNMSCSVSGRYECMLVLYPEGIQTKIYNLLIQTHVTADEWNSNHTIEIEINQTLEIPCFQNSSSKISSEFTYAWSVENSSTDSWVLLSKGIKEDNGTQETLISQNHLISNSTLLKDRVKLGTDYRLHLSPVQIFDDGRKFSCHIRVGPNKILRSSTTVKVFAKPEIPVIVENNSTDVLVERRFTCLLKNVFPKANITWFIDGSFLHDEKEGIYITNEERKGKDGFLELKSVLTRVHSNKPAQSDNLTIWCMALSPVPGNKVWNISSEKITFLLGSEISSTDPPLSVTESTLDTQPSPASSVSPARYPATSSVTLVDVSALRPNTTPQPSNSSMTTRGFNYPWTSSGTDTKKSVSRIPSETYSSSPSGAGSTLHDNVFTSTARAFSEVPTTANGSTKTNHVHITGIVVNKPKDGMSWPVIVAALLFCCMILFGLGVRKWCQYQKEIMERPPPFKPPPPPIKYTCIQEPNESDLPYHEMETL

T3: UNC5A (human, UniProt Q6ZN44)
T3 construct: expressed on cells; also called UNC5A expressed on cells
T3 sequence (cell-surface-expressed binding partner, looked up): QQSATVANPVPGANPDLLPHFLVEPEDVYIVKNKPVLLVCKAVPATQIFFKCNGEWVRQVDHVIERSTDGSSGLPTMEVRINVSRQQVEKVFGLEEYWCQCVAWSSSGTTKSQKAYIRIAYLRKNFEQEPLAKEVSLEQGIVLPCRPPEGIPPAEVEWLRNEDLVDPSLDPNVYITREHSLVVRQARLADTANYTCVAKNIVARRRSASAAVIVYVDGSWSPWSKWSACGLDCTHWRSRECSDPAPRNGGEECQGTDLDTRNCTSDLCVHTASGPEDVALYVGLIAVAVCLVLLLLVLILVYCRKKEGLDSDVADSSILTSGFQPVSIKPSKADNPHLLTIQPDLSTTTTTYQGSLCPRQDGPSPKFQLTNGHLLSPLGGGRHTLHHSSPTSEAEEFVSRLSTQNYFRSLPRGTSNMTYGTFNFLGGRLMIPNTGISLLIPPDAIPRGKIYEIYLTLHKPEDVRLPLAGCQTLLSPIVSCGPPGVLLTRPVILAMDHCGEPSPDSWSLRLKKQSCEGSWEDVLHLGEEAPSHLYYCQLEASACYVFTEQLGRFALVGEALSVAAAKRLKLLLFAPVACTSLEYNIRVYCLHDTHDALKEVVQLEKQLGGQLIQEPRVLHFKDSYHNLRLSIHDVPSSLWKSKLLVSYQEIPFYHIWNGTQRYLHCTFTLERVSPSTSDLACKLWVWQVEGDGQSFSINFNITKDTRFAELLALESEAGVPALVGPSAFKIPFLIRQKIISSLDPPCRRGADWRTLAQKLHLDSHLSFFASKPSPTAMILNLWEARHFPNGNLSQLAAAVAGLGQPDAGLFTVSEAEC

B1: BTN3A1 extracellular domain (receptor)
chain: not shown
notes: extracellular domain; Soluble query, streptavidin tetramer
B2: LILRA5 extracellular domain (receptor)
chain: not shown
notes: as for B1
B3: TIGIT (receptor, human, UniProt Q495A1 22-244, looked up)
cell-surface-expressed binding partner: MMTGTIETTGNISAEKGGSIILQCHLSSTTAQVTQVNWEQQDQLLAICNADLGWHISPSFKDRVAPGPGLGLTLQSLTVNDTGEYFCIYHTYPDGTYTGRIFLEVLESSVAEHGARFQIPLLGAMAATLVVICTAVIVVVALTRKKKALRIHSVEGDLRRKSAGQEEWSPSAPSPPGSCVQAEAAPAGLCGEQRGEDCAELHDYFNVLSYRSLGNCSFFTETG
notes: expressed on cells; also called TIGIT expressed on cells
B4: EDAR extracellular domain (receptor, human, UniProt Q9UNE0 27-187, looked up)
chain: EYSNCGENEYYNQTTGLCQECPPCGPGEEPYLSCGYGTKDEDYGCVPCPAEKFSKGGYQICRRHKDCEGFFRATVLTPGDMENDAECGPCLPGYYMLENRPRNIYGMVCYSCLLAPPNTKECVGATSGASANFPGTSGSSTLSPFQHAHKELSGQGHLATA
notes: as for B1
B5: CD226 (receptor, human, UniProt Q15762 19-336, looked up)
cell-surface-expressed binding partner: EEVLWHTSVPFAENMSLECVYPSMGILTQVEWFKIGTQQDSIAIFSPTHGMVIRKPYAERVYFLNSTMASNNMTLFFRNASEDDVGYYSCSLYTYPQGTWQKVIQVVQSDSFEAAVPSNSHIVSEPGKNVTLTCQPQMTWPVQAVRWEKIQPRQIDLLTYCNLVHGRNFTSKFPRQIVSNCSHGRWSVIVIPDVTVSDSGLYRCYLQASAGENETFVMRLTVAEGKTDNQYTLFVAGGTVLLLLFVISITTIIVIFLNRRRRRERRDLFTESWDTQKAPNNYRSPISTSQPTNQSMDDTREDIYVNYPTFSRRPKTRV
notes: expressed on cells; also called CD226 expressed on cells
B6: SLITRK3 extracellular domain (receptor, human, UniProt O94933 29-654, looked up)
chain: TPIPLIEDSEEIDEPCFDPCYCEVKESLFHIHCDSKGFTNISQITEFWSRPFKLYLQRNSMRKLYTNSFLHLNNAVSINLGNNALQDIQTGAFNGLKILKRLYLHENKLDVFRNDTFLGLESLEYLQADYNVIKRIESGAFRNLSKLRVLILNDNLIPMLPTNLFKAVSLTHLDLRGNRLKVLFYRGMLDHIGRSLMELQLEENPWNCTCEIVQLKSWLERIPYTALVGDITCETPFHFHGKDLREIRKTELCPLLSDSEVEASLGIPHSSSSKENAWPTKPSSMLSSVHFTASSVEYKSSNKQPKPTKQPRTPRPPSTSQALYPGPNQPPIAPYQTRPPIPIICPTGCTCNLHINDLGLTVNCKERGFNNISELLPRPLNAKKLYLSSNLIQKIYRSDFWNFSSLDLLHLGNNRISYVQDGAFINLPNLKSLFLNGNDIEKLTPGMFRGLQSLHYLYFEFNVIREIQPAAFSLMPNLKLLFLNNNLLRTLPTDAFAGTSLARLNLRKNYFLYLPVAGVLEHLNAIVQIDLNENPWDCTCDLVPFKQWIETISSVSVVGDVLCRSPENLTHRDVRTIELEVLCPEMLHVAPAGESPAQPGDSHLIGAPTSASPYEFSPPGGPVPLS
notes: extracellular domain; Streptavidin tetramer in cell assay; ECD-Fc prey in the variant screen
B7: BTN3A3 extracellular domain (receptor)
chain: not shown
notes: as for B1
B8: PVR (receptor, human, UniProt P15151 21-343, looked up)
soluble query ectodomain: WPPPGTGDVVVQAPTQVPGFLGDSVTLPCYLQVPNMEVTHVSQLTWARHGESGSMAVFHQTQGPSYSESKRLEFVAARLGAELRNASLRMFGLRVEDEGNYTCLFVTFPQGSRSVDIWLRVLAKPQNTAEVQKVQLTGEPVPMARCVSTGGRPPAQITWHSDLGGMPNTSQVPGFLSGTVTVTSLWILVPSSQVDGKNVTCKVEHESFEKPQLLTVNLTVYYPPEVSISGYDNNWYLGQNEATLTCDARSNPEPTGYNWSTTMGPLPPFAVAQGAQLLIRPVDKPINTTLICNVTNALGARQAELTVQVKEGPPSEHSGISRN
modifications: biotinylated
notes: extracellular domain; also called poliovirus receptor; monomeric or tetrameric PVR ectodomain
B9: FLRT2 (receptor, human, UniProt O43155 36-541, looked up)
soluble query ectodomain: CPSVCRCDRNFVYCNERSLTSVPLGIPEGVTVLYLHNNQINNAGFPAELHNVQSVHTVYLYGNQLDEFPMNLPKNVRVLHLQENNIQTISRAALAQLLKLEELHLDDNSISTVGVEDGAFREAISLKLLFLSKNHLSSVPVGLPVDLQELRVDENRIAVISDMAFQNLTSLERLIVDGNLLTNKGIAEGTFSHLTKLKEFSIVRNSLSHPPPDLPGTHLIRLYLQDNQINHIPLTAFSNLRKLERLDISNNQLRMLTQGVFDNLSNLKQLTARNNPWFCDCSIKWVTEWLKYIPSSLNVRGFMCQGPEQVRGMAVRELNMNLLSCPTTTPGLPLFTPAPSTASPTTQPPTLSIPNPSRSYTPPTPTTSKLPTIPDWDGRERVTPPISERIQLSIHFVNDTSIQVSWLSLFTVMAYKLTWVKMGHSLVGGIVQERIVSGEKQHLSLVNLEPRSTYRICLVPLDAFNYRAVEDTICSEATTHASYLNNGSNTASSHEQTTSHSMGSPF
modifications: biotinylated
notes: extracellular domain; also called soluble query

Key:
[1] = biological target: T1, LRRC4B expressed on cells; assay: cell surface interaction assay: streptavidin-tetramerized biotinylated ECD on transfected cells, immunofluorescence
[2] = biological target: T4, LILRB1 expressed on cells (human, UniProt Q8NHL6 24-650); assay: cell surface interaction assay: ECD tetramer on transfected cells (FIG. 5N)
T4 construct: whole, on cells; C-terminally tagged in the co-IP; also called LILRB1-FLAG

PVR [3] = biological target: B8; assay: cell surface binding of monomeric or streptavidin-tetramerised PVR ectodomain to TIGIT-expressing cells, normalized fluorescence intensity
PVR [4] = biological target: B8; assay: cell surface binding of monomeric or streptavidin-tetramerised PVR ectodomain to CD226-expressing cells, normalized fluorescence intensity
PTPRD expressed on cells = biological target: T5, PTPRD expressed on cells (human, UniProt P23468 21-1912); assay: cell surface interaction assay: streptavidin-tetramerized biotinylated ECD on transfected cells, immunofluorescence
T5 construct: whole, on cells; also called receptor-type tyrosine-protein phosphatase delta

PTPRS expressed on cells = biological target: T6, PTPRS expressed on cells (human, UniProt Q13332 30-1948); assay: as above
T6 construct: whole, on cells; also called receptor-type tyrosine-protein phosphatase S

CD96 = biological target: T2, CD96; assay: cell surface binding of monomeric or streptavidin-tetramerised PVR ectodomain to CD96-expressing cells, normalized fluorescence intensity
UNC5A = biological target: T3, UNC5A; assay: cell surface interaction assay: query ECD tetramerised with fluorescent streptavidin on transfected cells, immunofluorescence

T4 sequence (Q8NHL6 24-650): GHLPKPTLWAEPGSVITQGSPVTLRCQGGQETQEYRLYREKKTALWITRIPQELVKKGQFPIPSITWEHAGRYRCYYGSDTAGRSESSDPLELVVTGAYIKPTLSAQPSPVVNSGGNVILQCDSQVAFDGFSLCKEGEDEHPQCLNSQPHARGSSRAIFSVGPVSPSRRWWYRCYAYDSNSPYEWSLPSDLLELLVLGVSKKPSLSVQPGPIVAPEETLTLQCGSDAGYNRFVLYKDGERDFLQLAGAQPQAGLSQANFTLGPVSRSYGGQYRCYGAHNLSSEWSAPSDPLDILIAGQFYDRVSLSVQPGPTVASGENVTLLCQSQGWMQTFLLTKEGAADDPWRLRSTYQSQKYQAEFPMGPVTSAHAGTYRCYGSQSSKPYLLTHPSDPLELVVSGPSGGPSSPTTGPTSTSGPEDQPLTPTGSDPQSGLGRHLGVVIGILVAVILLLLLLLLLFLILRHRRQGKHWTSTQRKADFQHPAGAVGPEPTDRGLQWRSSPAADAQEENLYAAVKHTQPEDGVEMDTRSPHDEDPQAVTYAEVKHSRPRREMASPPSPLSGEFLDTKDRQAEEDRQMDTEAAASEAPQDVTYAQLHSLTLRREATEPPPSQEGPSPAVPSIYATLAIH
T5 sequence (P23468 21-1912): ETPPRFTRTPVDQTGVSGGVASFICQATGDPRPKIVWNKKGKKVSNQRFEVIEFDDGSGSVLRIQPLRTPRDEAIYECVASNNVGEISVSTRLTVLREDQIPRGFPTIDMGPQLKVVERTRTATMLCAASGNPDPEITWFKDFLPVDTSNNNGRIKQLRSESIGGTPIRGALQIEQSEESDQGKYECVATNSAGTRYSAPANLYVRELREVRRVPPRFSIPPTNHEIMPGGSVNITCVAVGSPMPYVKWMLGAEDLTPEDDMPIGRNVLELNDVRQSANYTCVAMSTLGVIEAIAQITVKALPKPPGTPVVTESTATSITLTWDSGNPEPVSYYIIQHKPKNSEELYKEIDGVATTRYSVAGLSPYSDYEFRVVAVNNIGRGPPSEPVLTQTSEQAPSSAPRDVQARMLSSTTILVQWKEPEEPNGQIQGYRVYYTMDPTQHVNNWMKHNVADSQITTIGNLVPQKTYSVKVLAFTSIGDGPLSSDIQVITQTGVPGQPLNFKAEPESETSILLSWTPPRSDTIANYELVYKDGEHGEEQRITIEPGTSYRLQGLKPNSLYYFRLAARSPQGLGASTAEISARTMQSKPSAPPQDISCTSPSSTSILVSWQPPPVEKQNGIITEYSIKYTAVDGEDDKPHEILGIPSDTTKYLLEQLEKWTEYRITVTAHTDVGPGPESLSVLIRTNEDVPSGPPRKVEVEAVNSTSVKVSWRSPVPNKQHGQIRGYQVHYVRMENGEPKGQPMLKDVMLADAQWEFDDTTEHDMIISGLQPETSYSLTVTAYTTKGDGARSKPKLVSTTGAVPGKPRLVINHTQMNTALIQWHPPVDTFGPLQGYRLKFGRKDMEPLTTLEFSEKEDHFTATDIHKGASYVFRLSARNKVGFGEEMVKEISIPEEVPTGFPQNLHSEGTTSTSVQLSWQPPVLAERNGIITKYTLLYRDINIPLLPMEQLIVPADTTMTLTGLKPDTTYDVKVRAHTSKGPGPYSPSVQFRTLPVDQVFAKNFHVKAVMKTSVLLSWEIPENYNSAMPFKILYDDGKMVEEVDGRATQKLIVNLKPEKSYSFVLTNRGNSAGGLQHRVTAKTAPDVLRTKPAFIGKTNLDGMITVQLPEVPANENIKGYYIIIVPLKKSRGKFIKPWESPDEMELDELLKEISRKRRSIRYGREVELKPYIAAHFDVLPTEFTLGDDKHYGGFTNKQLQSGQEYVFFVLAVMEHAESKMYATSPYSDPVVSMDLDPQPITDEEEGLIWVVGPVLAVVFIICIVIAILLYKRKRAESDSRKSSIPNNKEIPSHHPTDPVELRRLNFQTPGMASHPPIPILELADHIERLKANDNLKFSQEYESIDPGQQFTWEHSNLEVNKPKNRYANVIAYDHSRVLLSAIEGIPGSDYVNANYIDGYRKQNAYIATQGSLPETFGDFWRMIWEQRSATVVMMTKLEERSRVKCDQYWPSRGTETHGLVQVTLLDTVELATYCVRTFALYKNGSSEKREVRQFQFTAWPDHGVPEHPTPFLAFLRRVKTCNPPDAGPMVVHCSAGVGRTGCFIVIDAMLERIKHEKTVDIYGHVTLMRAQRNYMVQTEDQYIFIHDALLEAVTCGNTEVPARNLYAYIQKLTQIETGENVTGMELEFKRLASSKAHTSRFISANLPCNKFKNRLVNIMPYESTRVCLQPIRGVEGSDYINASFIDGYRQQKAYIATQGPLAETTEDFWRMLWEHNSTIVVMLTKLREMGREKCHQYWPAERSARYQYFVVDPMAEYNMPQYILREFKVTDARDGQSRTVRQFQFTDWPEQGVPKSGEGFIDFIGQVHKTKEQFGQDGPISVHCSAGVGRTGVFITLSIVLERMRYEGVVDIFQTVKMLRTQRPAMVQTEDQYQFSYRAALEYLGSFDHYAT
T6 sequence (Q13332 30-1948): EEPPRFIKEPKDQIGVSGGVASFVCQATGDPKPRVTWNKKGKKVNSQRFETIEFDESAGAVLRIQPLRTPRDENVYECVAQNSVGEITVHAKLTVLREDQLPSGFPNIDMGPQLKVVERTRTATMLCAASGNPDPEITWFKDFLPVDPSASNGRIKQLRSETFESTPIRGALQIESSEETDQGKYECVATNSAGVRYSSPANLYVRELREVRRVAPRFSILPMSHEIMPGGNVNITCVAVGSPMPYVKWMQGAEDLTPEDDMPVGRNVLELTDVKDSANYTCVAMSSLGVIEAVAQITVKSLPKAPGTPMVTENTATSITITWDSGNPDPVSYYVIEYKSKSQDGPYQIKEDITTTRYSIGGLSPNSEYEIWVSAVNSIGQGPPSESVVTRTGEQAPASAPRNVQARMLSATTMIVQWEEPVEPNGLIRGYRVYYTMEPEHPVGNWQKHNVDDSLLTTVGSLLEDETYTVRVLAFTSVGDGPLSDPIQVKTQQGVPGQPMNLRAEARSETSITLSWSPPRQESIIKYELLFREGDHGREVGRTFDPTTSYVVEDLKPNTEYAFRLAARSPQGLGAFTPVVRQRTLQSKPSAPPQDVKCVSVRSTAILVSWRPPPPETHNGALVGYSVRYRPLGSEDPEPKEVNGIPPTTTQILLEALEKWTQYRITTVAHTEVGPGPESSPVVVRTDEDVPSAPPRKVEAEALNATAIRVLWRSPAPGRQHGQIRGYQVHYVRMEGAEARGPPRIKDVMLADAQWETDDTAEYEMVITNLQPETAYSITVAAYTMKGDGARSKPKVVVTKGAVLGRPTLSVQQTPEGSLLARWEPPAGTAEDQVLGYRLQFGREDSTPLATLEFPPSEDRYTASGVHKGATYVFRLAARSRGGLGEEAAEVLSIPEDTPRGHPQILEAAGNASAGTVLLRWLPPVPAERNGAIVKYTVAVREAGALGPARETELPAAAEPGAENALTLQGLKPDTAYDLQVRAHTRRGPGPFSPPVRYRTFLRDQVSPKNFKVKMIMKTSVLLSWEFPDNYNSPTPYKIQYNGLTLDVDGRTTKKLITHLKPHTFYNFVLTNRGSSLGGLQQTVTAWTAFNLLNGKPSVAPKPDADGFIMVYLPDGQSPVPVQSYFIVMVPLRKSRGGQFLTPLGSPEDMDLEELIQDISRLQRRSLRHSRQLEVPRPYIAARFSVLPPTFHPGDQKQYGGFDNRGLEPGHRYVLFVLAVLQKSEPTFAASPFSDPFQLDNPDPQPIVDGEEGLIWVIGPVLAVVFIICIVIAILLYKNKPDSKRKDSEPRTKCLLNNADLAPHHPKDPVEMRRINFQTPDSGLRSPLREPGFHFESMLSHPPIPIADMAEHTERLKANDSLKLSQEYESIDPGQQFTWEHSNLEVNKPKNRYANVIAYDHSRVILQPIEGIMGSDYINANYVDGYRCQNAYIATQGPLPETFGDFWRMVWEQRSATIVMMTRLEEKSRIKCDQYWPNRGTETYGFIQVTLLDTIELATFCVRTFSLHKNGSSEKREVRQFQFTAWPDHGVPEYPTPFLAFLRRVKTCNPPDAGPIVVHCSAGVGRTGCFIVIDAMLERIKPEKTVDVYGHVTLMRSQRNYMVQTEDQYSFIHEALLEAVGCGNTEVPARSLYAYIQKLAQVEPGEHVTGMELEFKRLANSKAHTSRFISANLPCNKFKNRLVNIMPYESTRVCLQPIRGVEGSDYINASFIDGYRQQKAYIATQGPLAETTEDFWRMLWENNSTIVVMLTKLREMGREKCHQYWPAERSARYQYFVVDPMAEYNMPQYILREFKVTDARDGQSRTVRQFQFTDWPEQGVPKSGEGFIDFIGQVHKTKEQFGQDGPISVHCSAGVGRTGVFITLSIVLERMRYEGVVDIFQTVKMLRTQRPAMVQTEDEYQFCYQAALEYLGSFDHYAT

B1: binds [1].

B2: binds [2].

B3: binds (PVR [3]).

B4: binds [2].

B5: binds (PVR [4]).

B6: binds (PTPRD expressed on cells); binds (PTPRS expressed on cells).

B7: binds [1].

B8: binds (CD96).

B9: binds (UNC5A).
